Reference: patent publication US11472855, “RNA-binding protein” (Panitch Schwarze Belisario & Nadel LLP)

Legend:
Assay in all cases: EMSA; comparable to WT
Conditions in all cases: label: Alexa680 at 5' and 3'
hPUF_MT(R7_ILQ) = biological target: T1, hPUF_MT(R7_ILQ) (UniProt Q14671 SEQ:1-342)
T1 chain: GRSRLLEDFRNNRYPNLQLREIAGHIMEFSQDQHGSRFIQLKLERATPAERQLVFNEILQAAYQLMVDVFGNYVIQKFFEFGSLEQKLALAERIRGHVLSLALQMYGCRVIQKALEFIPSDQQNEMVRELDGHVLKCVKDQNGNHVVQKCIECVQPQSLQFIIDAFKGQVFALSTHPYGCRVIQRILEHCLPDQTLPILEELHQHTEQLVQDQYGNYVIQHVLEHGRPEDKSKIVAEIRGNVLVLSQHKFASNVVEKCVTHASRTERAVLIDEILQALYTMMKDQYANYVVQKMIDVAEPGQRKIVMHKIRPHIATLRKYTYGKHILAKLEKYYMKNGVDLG

hPUF_MT(R4→R6) = biological target: T2, hPUF_MT(R4→R6) (UniProt Q14671 SEQ:1-349)
T2 chain: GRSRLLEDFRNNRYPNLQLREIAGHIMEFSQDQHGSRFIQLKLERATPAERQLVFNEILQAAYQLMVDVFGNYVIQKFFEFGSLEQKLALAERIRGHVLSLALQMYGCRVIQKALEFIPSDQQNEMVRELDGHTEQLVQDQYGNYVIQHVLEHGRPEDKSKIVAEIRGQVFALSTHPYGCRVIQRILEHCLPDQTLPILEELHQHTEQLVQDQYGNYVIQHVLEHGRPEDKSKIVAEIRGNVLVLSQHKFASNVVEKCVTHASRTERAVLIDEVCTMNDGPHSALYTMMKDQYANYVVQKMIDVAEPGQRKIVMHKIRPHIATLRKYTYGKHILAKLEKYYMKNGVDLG
Description: (§1) An RNA probe (OTS-1511) containing a target sequence fluorescence-labeled with Alexa680 at both ends thereof was synthesized.
(§2) Each purified protein was diluted to a desired concentration with Binding Buffer, mixed with a binding buffer and Ribonuclease Inhibitor, Cloned (Invitrogen), and then, mixed with the RNA probe at a final concentration of 0.5 nM. […] A binding reaction was performed at 4° C. for 30 min. Subsequently, the solution was gently mixed by pipetting. A binding reaction was performed again at 4° C. for […].

hPUF_MT(R3→R5) = biological target: T3, hPUF_MT(R3→R5) (UniProt Q14671 SEQ:1-349)
T3 chain: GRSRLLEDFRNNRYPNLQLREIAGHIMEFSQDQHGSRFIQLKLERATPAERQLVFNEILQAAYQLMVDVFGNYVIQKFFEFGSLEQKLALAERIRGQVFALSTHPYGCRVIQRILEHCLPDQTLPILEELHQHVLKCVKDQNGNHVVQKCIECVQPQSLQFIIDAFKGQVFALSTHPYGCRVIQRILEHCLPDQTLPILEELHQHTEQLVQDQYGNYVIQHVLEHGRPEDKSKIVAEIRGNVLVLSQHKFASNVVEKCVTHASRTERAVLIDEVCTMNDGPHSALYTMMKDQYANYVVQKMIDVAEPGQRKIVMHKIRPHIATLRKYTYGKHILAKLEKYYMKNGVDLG
Description: as §1, §2

Measured: binding result

CCAGAAUUGUAUAUAUUCG (ssRNA) [OTS-1511]
binds: all assays above
